{"source": "patent US7022323", "key": {"[1]": {"biological_target": "DC-SIGNR (DC-SIGN Related), human, expressed on HeLa-DC-SIGN-R cells (homo sapien) (UniProt Q9H2X3)", "sequence (Q9H2X3 whole entry C368X)": "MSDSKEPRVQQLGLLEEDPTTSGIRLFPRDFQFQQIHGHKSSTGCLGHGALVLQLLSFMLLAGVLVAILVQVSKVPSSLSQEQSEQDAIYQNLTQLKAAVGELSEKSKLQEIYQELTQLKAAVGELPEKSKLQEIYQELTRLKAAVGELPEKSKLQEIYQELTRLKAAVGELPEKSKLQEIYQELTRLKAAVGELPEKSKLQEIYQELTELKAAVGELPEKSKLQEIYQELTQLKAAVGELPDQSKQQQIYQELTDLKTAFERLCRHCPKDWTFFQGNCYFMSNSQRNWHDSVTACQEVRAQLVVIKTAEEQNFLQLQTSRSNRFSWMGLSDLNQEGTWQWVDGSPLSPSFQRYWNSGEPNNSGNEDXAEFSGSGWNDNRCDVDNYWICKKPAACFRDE", "assay": "flow cytometry on HeLa-DC-SIGN-R cells"}, "[2]": {"biological_target": "DC-SIGN (Dendritic Cell-Specific Intercellular adhesion molecule 3-Grabbing Nonintegrin), human, expressed on HeLa-DC-SIGN cells (homo sapien) (UniProt Q9NNX6)", "sequence (Q9NNX6 whole entry)": "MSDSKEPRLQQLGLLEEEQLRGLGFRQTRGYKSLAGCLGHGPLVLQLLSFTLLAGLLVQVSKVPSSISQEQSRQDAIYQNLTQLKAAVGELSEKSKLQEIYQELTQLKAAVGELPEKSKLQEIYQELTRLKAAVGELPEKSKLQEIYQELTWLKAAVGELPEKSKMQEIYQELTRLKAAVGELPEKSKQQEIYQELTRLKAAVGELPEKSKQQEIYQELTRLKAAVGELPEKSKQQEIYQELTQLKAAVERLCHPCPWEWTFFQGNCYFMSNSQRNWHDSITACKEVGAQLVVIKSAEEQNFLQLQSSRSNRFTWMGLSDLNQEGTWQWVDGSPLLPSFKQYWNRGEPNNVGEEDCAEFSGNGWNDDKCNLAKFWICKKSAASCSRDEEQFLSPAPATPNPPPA", "assay": "flow cytometry on HeLa-DC-SIGN cells"}}, "data": [{"substance": "120507 (507D), DC-SIGN-specific mouse IgG2b mAb (BD Pharmingen) (antibody)", "values": [{"measurement": "% Positive Cells", "setting": "[1]", "value": 3.5, "unit": "%"}, {"measurement": "Mean fluorescence intensity", "setting": "[1]", "value": 17.1}, {"measurement": "% Positive Cells", "setting": "[2]", "value": 90.6, "unit": "%"}, {"measurement": "Mean fluorescence intensity", "setting": "[2]", "value": 81.1}]}, {"substance": "120604 (604L), DC-SIGN-R-specific mouse IgG2b mAb (BD Pharmingen) (antibody)", "values": [{"measurement": "% Positive Cells", "setting": "[1]", "value": 96, "unit": "%"}, {"measurement": "Mean fluorescence intensity", "setting": "[1]", "value": 129}, {"measurement": "% Positive Cells", "setting": "[2]", "value": 1.1, "unit": "%"}, {"measurement": "Mean fluorescence intensity", "setting": "[2]", "value": 14.2}]}, {"substance": "Isotype control (antibody)", "values": [{"measurement": "% Positive Cells", "setting": "[1]", "value": 2.8, "unit": "%"}, {"measurement": "Mean fluorescence intensity", "setting": "[1]", "value": 13.7}, {"measurement": "% Positive Cells", "setting": "[2]", "value": 1, "unit": "%"}, {"measurement": "Mean fluorescence intensity", "setting": "[2]", "value": 16.9}]}, {"substance": "120612 (612X), mouse IgG2a mAb that recognizes both DC-SIGN and DC-SIGN-R (BD Pharmingen) (antibody)", "values": [{"measurement": "% Positive Cells", "setting": "[1]", "value": 94.8, "unit": "%"}, {"measurement": "Mean fluorescence intensity", "setting": "[1]", "value": 102}, {"measurement": "% Positive Cells", "setting": "[2]", "value": 67.3, "unit": "%"}, {"measurement": "Mean fluorescence intensity", "setting": "[2]", "value": 46.6}]}]}
